Tests used:
MS2 coat protein [1] = experiment: apparent KD of MS2 coat protein; designed switch direction (-1 OFF switch, 1 ON switch): -1; higher = weaker reporter binding; conditions: Eterna round: R98
Experimental: (§1)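 RNA-MaP: designed FMN/MS2 RNA switches (84 nt design region) are transcribed on-chip within common flanks and titrated with SNAP-549-labelled MS2 coat protein (about 1-3000 nM) in 100 mM Tris pH 7.5, 80 mM KCl, 4 mM MgCl2, without or with 200 uM FMN. Median apparent KD per design; activation ratio = KD,OFF / KD,ON.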

MS2 coat protein [2] = experiment: apparent KD of MS2 coat protein; designed switch direction (-1 OFF switch, 1 ON switch): 1; higher = weaker reporter binding; conditions: Eterna round: R98
Experimental: as §1

Sequence	apparent KD of MS2 coat protein (MS2 coat protein [1]; input ligand: FMN 200 uM) [nM]	apparent KD of MS2 coat protein (MS2 coat protein [1]; input ligand: none) [nM]	apparent KD of MS2 coat protein (MS2 coat protein [2]; input ligand: FMN 200 uM) [nM]	apparent KD of MS2 coat protein (MS2 coat protein [2]; input ligand: none) [nM]
AACAGCGUAGAUAAUAAUGAUUACAUGAGGAUCACCCAUGUAUAGGAUAUGCAGUGGAAUACACUGCAGAAGGAUACAUCGCUG [Exclusion NG 3/18-B1]	33	17.5	–	–
AAUAUAAAAGAGCUGGAUAACUCAACAUGAGGAUCACCCAUGUAGGAUAUCAGCACGAUAAGUGCUGAGAAGGACAACCAGCUC [Denovo 69]	16.2	14.8	–	–
AGCUGUGGCCGAGGAUAUCUAUCUUCAAUAACCGAAAUAUAAUCGGACAUGAGGAUCACCCAUGUAGAGAAGGCGGUCUCAGCA [Eli xng2 2.033]	100	37.7	–	–
AUGACAGGCAAAGCGCAACGGCGAACAUGAGGAUCACCCAUGUAGGAUAUGCUACACAAAGUGUAGCAGAAGGACAUACGACGA [Ex NG2 #82]	88.6	41.2	–	–
AUGCUUCACACAGGAUAUACAUGAGGAUCACCCAUGUGUGGGCGGUAGCUGACACGAGCUACCGGGUAGAAGGGUGUGAAGCAU [xclu_NG2_cac21]	127	32.6	–	–
CCAUACAUGAGGAUCACCCAUGACAUGAGGAUCACCCAUGUGCAGGAUAUACGUGAUAUAAUAAAGUAGAAGGGCAGACCAAAA [LRO002_Exclusion NG 3]	87.4	74.2	–	–
CCGGAAACGGGUAGCUGUACAUGAGGAUCACCCAUGUGAUCAUAGGAUAUGGUUCCUAAUUGGAACCAGAAGGAUGUCAGCUAC [Mat - Same State NG 3 - JL Mod - D86]	–	–	434	32.6
CCGGUGUAUGCAGGAUAUGAGAGGAGGUGACCAUCAGAAGGGCAAGCCCACAUGAGGAUCACCCAUGUACUAAGAGACAAGGCC [Tienlaonso]	–	–	50.7	25.5
CCGUGACACGAAGGAUAUGUGGGUGGUAGUCUGUGCUCCGCCUACAUGAGGAUCACCCAUGUAUCACAGAAGGUCGGACGUCAA [Zaaerzaza]	–	–	71.2	51.3
CCUACCAACACAGGAUAUGCUAUCCUUUGGGUAGCAGAAGGGUGAAACAUGAGGAUCACCCAUGUGGUGGGACCCGGUGACGGG [Mat - Same State NG 1 - Eli mod - D70]	–	–	116	1010
CUAAUUUAUUGAGGAUAUGCACAGGAUCACCGUGUAGAAGGCAUCAGGGAGAAGGUGCAGAGGAUCACCCUGUAAGGAUAUCAA [pwkr2 ssNG1 DX.3]	–	–	105	231
CUAGCAUACCGAGGAUAUUCAUAUAAUAAAUAAACAUGAGGAUCACCCAUGUGGCGAAAGCCUAGGGAGAAGGCGGAAUGCUAG [salish99_SSNG2_r2_004]	–	–	20.1	212
GCACUCAAGUUAGGAUAUGGAUCGGAAAACGAUCCAGAAGGAACAUGGGAACAUGAGGAUCACCCAUGUUCCAGAAACGAGUGC [SameSame 1 - Jieux - Same State NG 1]	–	–	188	733
GCACUCAAGUUAGGAUAUGGAUCGGAAACCGAUCCAGAAGGAACACAAUAACAUGAGCAUCAGCCGUGUUCCAGAAACGAGUGC [SameSame 15 - Jieux - Same State NG 1]	–	–	126	–
GCACUGGAUGUAGGAUAUCAGGACGAUAAGUCCUGAGAAGGACAUGAGGAUCACCCAUGUGAAUAAAACCAGUGCAAUAAUAUA [Denovo Exng1 22]	30.9	13.4	–	–
GCAGAAGGUGCGGAGGAUCACCCUGUAAGGAUAUGCAUUAGCAAGGAUAUACAGAGGAUCACCCUGUAGAAGGUGCACUACAAA [pwkr2 ssNG3 DX.5]	–	–	525	1890
GCCACAUGAGGAUCACCCAUGUACGGUUCCGUCUCAUUAGUGCAGGAUAUGUUCACCGGAAGUGUGCAGAAGGGUAAAAGUGGG [Onar]	–	–	209	88.2
GCCAUCGCAUGAGGAUAUGGACAGCUUUGCUGUCCAGAAGGCAUGUCAUAAGACAUGAGGAUCACCCAUGUAGUUAAGAUGGCA [Mat - Same State NG 1 - JL Mod - D15]	–	–	74.1	1070
GCCAUCGCAUGAGGAUAUGGCACCGUUUCGGUGCCAGAAGGCAUGUCUCUAGACAUGAGGAUCACCCAUGUAGUUAAGAUGGCA [Pyrimidine booster 2]	–	–	50.4	589

Sequence	apparent KD of MS2 coat protein (MS2 coat protein [1]; input ligand: FMN 200 uM) [nM]	apparent KD of MS2 coat protein (MS2 coat protein [1]; input ligand: none) [nM]	apparent KD of MS2 coat protein (MS2 coat protein [2]; input ligand: FMN 200 uM) [nM]	apparent KD of MS2 coat protein (MS2 coat protein [2]; input ligand: none) [nM]
GGACAUCCCACAGGAUAUGCUGGACUUUGUCCAGCAGAAGGGUGACAUGAGGAUCACCCAUGUAAUAGGAUGUCCAUAUUUAAU [Denovo 38]	–	–	79.3	536
GGCGAUCAGGCUAACAUGAGGAUCACCCAUGUGGACUCAUGGUAGGAUAUGCUGUACAAAGUACAGCAGAAGGGCCGGAGAGCC [Mat - Same State NG 3 - JL Mod - D2]	–	–	144	152
GGUCCAAUAUGAGGAUAUAGCACCUUAUUGGUGCUAGAAGGCGUGUCGGUAGACAUGAGGAUCACCCAUGUAUUACAAUGGACC [SameState #28 NG1]	–	–	25.6	88.6
GUAGCAUACCGAGGAUAUUCAGAGAAUAAAUAAACAUGAGGAUCACCCAUGUGGCGAAAGCCUAGGGAGAAGGCGGAAUGCUAC [salish99_SSNG2_r2_208]	–	–	25.3	81.9
GUAGCAUACCGAGGAUAUUCAUAUAAUAAAUAAACAUGAGGAUCACCCAUGUGGCGAAAGCCUAGGGAGAAGGCGGAAUGCUAA [salish99_SSNG2_r2_113]	–	–	23.6	201
GUAGCAUACCGAGGAUAUUCAUAUAAUAAAUAAACAUGAGGAUCACCCAUGUGGCGAAAGCCUAGGGAGAAGGCGGAAUGCUAG [salish99_SSNG2_r2_003]	–	–	22.1	248
GUAGCAUACCGAGGAUAUUCAUAUAAUAAAUAAACAUGAGGAUCACCCAUGUGGCGAAAGCCUAGGGAGAAGGCGGAAUGCUAU [salish99_SSNG2_r2_110]	–	–	24.2	171
GUCGAAUUCUUAGGAUAUCGAGUGGAUAACACUCGAGAAGGAAGAUAUACCUGAGGAUCACCCAGGUUAAACUGAACGACAAUA [Same State NG1 - A3C, U17G Submission 7D]	–	–	17.5	18.5
UAUAUAAUAAGAGCUGGAACUCAAACAUGAGGAUCACCCAUGUAGGAUAUCAGCACGAUAAGUGCUGAGAAGGACAACCAGCUC [Denovo 75]	21.2	17.6	–	–
UAUAUAAUUAAGAGCUGGACCAAAACAUGAGGAUCACCCAUGUAGGAUAUCAGCACGAUAAGUGCUGAGAAGGACUACCAGCUC [Denovo 83]	22.4	18.5	–	–
UCACAGUGUCGUUAUCCGUAGCGAACAUGAGGAUCACCCAUGUAGGAUAUGUUAUUAAACUAAUAACAGAAGGACGUUAGUCGG [Ex NG3 #21]	94.3	36	–	–
UCACUCACGUCAGGAUAUGGAUCGGAAAACGAUCCAGAAGGGACCUGCAAACCUGAGGAUCACCCUGGUUCCAAUAACGAGUGA [SameSame 10 - Jieux - Same State NG 1]	–	–	133	222
UGACGGCACACAGGAUAUAGUGCACAAAGUGUACUAGAAGGGUGAGCACUCGUCCGGGCACAUGAGGAUCACCCAUGUCGUCGA [Onusar]	–	–	1040	133
UGCACAUGAGGAUCACCCAUGUAUUGUUCGGUUUAUAGUAGUGAGGAUAUGCAAAGUAUAAGGAAGCAGAAGGCACAGGAUUCA [JR_SSNG3_Sub045]	–	–	19.5	26.3
UGGACCAAUACAGGAUAUGGUGACGCACAUGAGGAUCACCCAUGUCCGCAGCGUGCUCAGCACGCCCAGAAGGGUAUUGAUUCA [Tereriesti]	–	–	74.5	671
UUGACGUCGGAUACAUGAGGAUCACCCAUGUGCCCGCGGGCACAGGAUAUCGAACAUAGUAUUGACGAGAAGGGUGACAGAGAG [Anxeenerce]	–	–	664	404
UUUACAUGAGGAUCACCCAUGUAUGUCACCCAUGUGUGUAAUCAGGAUAUGAAAUAAAUAAUAAAUUAGAAGGGAUAACAUGAG [Attempt 1]	–	–	72.9	60.3
UUUACAUGAGGAUCACCCAUGUUUAGAAAGUUAAUUAUAAGUGAGGAUAUAUAAUUUAUAAAAUAGUAGAAGGCACUGGGUAUU [JR_SSNG3_Sub079]	–	–	27.2	32
